Measured values published in IntAct's records for PubMed 20890305.

B1: Merlin (Homo sapiens), P35240 (parent)
chain: MAGAIASRMSFSSLKRKQPKTFTVRIVTMDAEMEFNCEMKWKGKDLFDLVCRTLGLRETWFFGLQYTIKDTVAWLKMDKKVLDHDVSKEEPVTFHFLAKFYPENAEEELVQEITQHLFFLQVKKQILDEKIYCPPEASVLLASYAVQAKYGDYDPSVHKRGFLAQEELLPKRVINLYQMTPEMWEERITAWYAEHRGRARDEAEMEYLKIAQDLEMYGVNYFAIRNKKGTELLLGVDALGLHIYDPENRLTPKISFPWNEIRNISYSDKEFTIKPLDKKIDVFKFNSSKLRVNKLILQLCIGNHDLFMRRRKADSLEVQQMKAQAREEKARKQMERQRLAREKQMREEAERTRDELERRLLQMKEEATMANEALMRSEETADLLAEKAQITEEEAKLLAQKAAEAEQEMQRIKATAIRTEEEKRLMEQKVLEAEVLALKMAEESERRAKEADQLKQDLQEAREAERRAKQKLLEIATKPTYPPMNPIPAPLPPDIPSFNLIGDSLSFDFKDTDMKRLSMEIEKEKVEYMEKSKHLQEQLNELKTEIEALKLKERETALDILHNENSDRGGSSKHNTIKKLTLQSAKSRVAFFEEL
B2: Mitogen-activated protein kinase kinase kinase 11 (Homo sapiens), Q16584 (parent)
chain: MEPLKSLFLKSPLGSWNGSGSGGGGGGGGGRPEGSPKAAGYANPVWTALFDYEPSGQDELALRKGDRVEVLSRDAAISGDEGWWAGQVGGQVGIFPSNYVSRGGGPPPCEVASFQELRLEEVIGIGGFGKVYRGSWRGELVAVKAARQDPDEDISVTAESVRQEARLFAMLAHPNIIALKAVCLEEPNLCLVMEYAAGGPLSRALAGRRVPPHVLVNWAVQIARGMHYLHCEALVPVIHRDLKSNNILLLQPIESDDMEHKTLKITDFGLAREWHKTTQMSAAGTYAWMAPEVIKASTFSKGSDVWSFGVLLWELLTGEVPYRGIDCLAVAYGVAVNKLTLPIPSTCPEPFAQLMADCWAQDPHRRPDFASILQQLEALEAQVLREMPRDSFHSMQEGWKREIQGLFDELRAKEKELLSREEELTRAAREQRSQAEQLRRREHLLAQWELEVFERELTLLLQQVDRERPHVRRRRGTFKRSKLRARDGGERISMPLDFKHRITVQASPGLDRRRNVFEVGPGDSPTFPRFRAIQLEPAEPGQAWGRQSPRRLEDSSNGERRACWAWGPSSPKPGEAQNGRRRSRMDEATWYLDSDDSSPLGSPSTPPALNGNPPRPSLEPEEPKRPVPAERGSSSGTPKLIQRALLRGTALLASLGLGRDLQPPGGPGRERGESPTTPPTPTPAPCPTEPPPSPLICFSLKTPDSPPTPAPLLLDLGIPVGQRSAKSPRREEEPRGGTVSPPPGTSRSAPGTPGTPRSPPLGLISRPRPSPLRSRIDPWSFVSAGPRPSPLPSPQPAPRRAPWTLFPDSDPFWDSPPANPFQGGPQDCRAQTKDMGAQAPWVPEAGP

Variants of: B1
Conditions: with MAP3K11, Q16584

| Variant | effect of a mutation on the interaction |
| --- | --- |
| MAGAIASRMSFSSLKRKQPKTFTVRIVTMDAEMEFNCEMKWKGKDLFDLVCRTLGLRETWFFGLQYTIKDTVAWLKMDKKVLDHDVSKEEPVTFHFLAKFYPENAEEELVQEITQHLFFLQVKKQILDEKIYCPPEASVLLASYAVQAKYGDYDPSVHKRGFLAQEELLPKRVINLYQMTPEMWEERITAWYAEHRGRARDEAEMEYLKIAQDLEMYGVNYFAIRNKKGTELLLGVDALGLHIYDPENRLTPKISFPWNEIRNISYSDKEFTIKPLDKKIDVFKFNSSKLRVNKLILQLCIGNHDLFMRRRKADSLEVQQMKAQAREEKARKQMERQRLAREKQMREEAERTRDELERRLLQMKEEATMANEALMRSEETADLLAEKAQITEEEAKLLAQKAAEAEQEMQRIKATAIRTEEEKRLMEQKVLEAEVLALKMAEESERRAKEADQLKQDLQEAREAERRAKQKLLEIATKPTYPPMNPIPAPLPPDIPSFNLIGDSLSFDFKDTDMKRLDMEIEKEKVEYMEKSKHLQEQLNELKTEIEALKLKERETALDILHNENSDRGGSSKHNTIKKLTLQSAKSRVAFFEEL [S518D] | decreasing interaction |

Variants of: B2
Conditions: with merl_human NF2, P35240

| Variant | effect of a mutation on the interaction |
| --- | --- |
| K144R | disrupting interaction |
